The domain aggregation screens of Martell et al. (2025)

Experiment: soluble fraction after stress (log2 fold change); higher = more stays soluble; pooled small domains, quantitative proteomics
Settings: stress: 50 degC
Method in brief: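 Pooled custom libraries of small protein domains were each held under stress at 50°C. The read-out, high-throughput quantitative proteomics, tracked how much of each protein stayed soluble. This is reported as a base-two log fold change used to indicate aggregation propensity. Higher values mean more protein remains in solution.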

| Sequence | soluble fraction (log2) |
| --- | --- |
| HMSGFFVYPNPAKSNIIHFPNKKSFYIYDTSGRLLIEGKGKDFIDVSTLDRGVYLLKTFENDIVKIII | -1.25 |
| HMLRGKNALMSQLDQIQGIGPKRKRALFNHFLTLDAIKQADVETLRQAPGMNLPAAEQVYRHFHM | 0.0637 |
| HMDDVVVLPFTAEFARMSSDDFVREILVGKIGMKRFVVGYNHRFGSGQQGDFASLQRMQGELGFVAVRVG | 0.0571 |
| HMGGYLIGDVAQMVGLSRDALRFYEKKGIIRADKKENGYRYYSEDDIYRLMYILYHRKMNTSLEEIGGLMS | -0.739 |
| HMQRFIHITVSDVHQATRLLEEEMQLTNYSVAENNAIKIFEFTYEPQEINHLFGKNGIEVSSLFIGS | -0.134 |
| HMNVVINNELVSLMVEAMKDGVSSKSIQEEFEGYKISGKTITKKVLTAHVNKALEVFADMQE | -0.213 |
| HMPNYIDAISALLTLKGVGDRKHASTMANILNLQYNSAKQKLDGKRGITLDEVKKVFQYFNEPF | -1.1 |
| HMYLLPVTSTELKGNYPNPFNPETTISFDLKDAERVNLSIYNLKGQLVRTLVNSDLPIGRHRLIWDGNDS | -0.603 |
| HMDPFAYEVKVTDLAAGSSEIRTVYTEQGSFNIPSGMSGNLKIQVRSASMYDEVEPSDWYTIGEEDIN | -0.0779 |
| HMDANLGEIFKVYEQEIGALTPFVREEMLDAIDHYPRDWILDAIRESAKSNARNWKYTLAILKRWKAEG | -0.312 |
| HMRAEPNSNYSLAIIYKNRYDIAVKKKDAVKEVEYGKMVYEYLNKYVVLSGNKSAKYKKILNYFSSY | -3.04 |
| HMTSPKSRIVSALLASPSRPEELAMRLGEDILTLMRTLTDFEASGIIQRLPDGRYTPTREYHLGLVDK | 0.0852 |
| HMQGIPVTVTAERANLRSGPGTSFDKLGQVVQGDVLTLLEVQNDWYKVKTAEGKTAFVAAYLVNSP | 0.0205 |
| HMKQDFVYNGFVEAKGDDLMVQINYKGETYYVTEGESFGGFTVKSANKDKVVLSGQGGAETVLEFR | -0.106 |
| HMLPQGKGTAMWLADHLAAASVTLDAGARKLLEDTLGEDMSRLPGVLRVLEATFGSDAGRLSAEDIEPFL | 0.31 |
| HMGRPTLEQLLDRAQAMGVPRERYAAYADRRWGRGWRVNPHGRGRAWDELDRYRNDPAGYLDKIEVELNQL | -0.101 |
| HMTSKVTVLAVNGRITVSGKEQDETVSVYDTGGRLLYQGESDVINVPRKAMYIVTVSRKSYKVIV | -0.941 |
| HMNVDALVGQRGRVTQTFDPGLRLGRVAVGGDDWRAETTTDQPLREGDLVEVVSVESNTLIVRPIA | -0.0828 |
| HMSSEASALRGWLQTSQYQGSVTLFANALNVPLKTVEDWVYGRSKPSLQHWSQLYEATGLPEYQQ | -0.18 |

| Sequence | soluble fraction (log2) |
| --- | --- |
| HMGRRSKAMLSSALDAVPGLGEMRRKALISQFGSLKKLRGATPEEIAAVPGIGPKLAAAVHEAVSG | 0.0505 |
| HMSDAVQLGLRLRAARERRGLSQQAVADALGLPRTAVTNMESGNRAVSTLELTKLAALYGQSTAFFLSP | -0.1 |
| HMEDINAVLAENLRRLRESRRLSLDAVARLTGVSKSMLGQIERGEVNPTVSTMWKIAGGLKVNFTALFRRE | -1.47 |
| HMFPDRLRELRKGRNITLETLAEEMNKHLEPGQKPNTAAQIGNWERGDRSPSYIEVRKLADFFNVSMDFL | -0.636 |
| HMFGNTGETSGTGVAFTRSPVDGENKIFGEFLVNAQGEDVVAGIRTPQPISEMEQAFPEVYSKFESVAEIL | 0.0862 |
| HMKSSLAKNLETLMQERQISQTRLSKISGVSQSYIFKILNDQIKKPSLDTLEKLATALDSTVAQLNH | -0.00953 |
| HMRVDRSALDSIPGVGPGRKRTLLHHFGSARAVEASGLADLESIRGISKALARKIYDFFHPE | -1.38 |
| HMADFYEVLGVERNASSDQIKRAYRKLARELHPDVNLDPVAQNRFKEVTEAYEVLSDPNKRSNFDRG | 0.209 |
| HMLIIDLPDFTNKKLSELQQWADANQITLKIVEKDVSSKPYDTILEQTPAKNKYEKIVKGSTMTVTVNIK | -0.562 |
| HMSQPLYWQIRRMVIDHDDANDVLQNTFIKAWSNIGSFRGDAKFSTWLYKIAVNESITFINKKKVQN | -0.469 |
| HMGDAVSRAYFALADDLLKGELTETVSEVLIRTRYELTSAQLQAVLHRIAQEGWAHKKPGYGWEFSAMLT | -1.83 |
| HMNNGTDGLTTRLRRAILAGQYTFKERLPSERQLAEHFNTSRGTVRKVLQRLTTMNLVEQRAGSGTYVRYG | -0.2 |
| HMAVGDMISKLRTAANMSQEQFAELFGVTRQSVQKWENSFSVPELEKLIKISKYFDVSLDALVLRSDARVT | -1.06 |
| HMKTFQSYQTTSMSNVNLRKRANGTSTILKRIKVGDTVTVVGKSGNYYQIQFDGKEGYALIKYIDGTDSGA | -0.247 |
| HMKMHKIIKERRLALNFTQEQVAKYLGVTTPAVNKWEKGISYPDISLLPALARLLDTDLNTLLSF | -2.1 |
| HMDFDVELTSAGTAKVKVIKAVREATGLGLKEAKDLVDNAPSIVKEGLDEAAANDLKAALEETGASVTL | 0.117 |
| HMKIYDQVVDRIKDRISKGDMPQGSALPPERQLIDELNVSRSSLREGFRILEMMGLIESIPGKGRFVRTSR | -0.235 |
| HMKALDTVLSEIPGLGPVRIKQLLKVFGSVDAIRKASLQDLQQIEGIGPKLAQTIYEYFHQP | ≥ 0.62 |
